According to patent publication US10357539B2, “Use of peptides that block metadherin-SND1 interaction as treatment for cancer” (THE TRUSTEES OF PRINCETON UNIVERSITY, priority 2014, dated 2019):
Where no end group is shown, it is not given here.

T1: SND1 (Mus musculus, UniProt Q78PY7)
T1 construct: endogenous in cells; host or cells: PyMT;Mtdh−/− (A9) or PyMT;Mtdh+/+ (A13) mouse mammary epithelial/tumor cells
T1 sequence (Q78PY7 1-910): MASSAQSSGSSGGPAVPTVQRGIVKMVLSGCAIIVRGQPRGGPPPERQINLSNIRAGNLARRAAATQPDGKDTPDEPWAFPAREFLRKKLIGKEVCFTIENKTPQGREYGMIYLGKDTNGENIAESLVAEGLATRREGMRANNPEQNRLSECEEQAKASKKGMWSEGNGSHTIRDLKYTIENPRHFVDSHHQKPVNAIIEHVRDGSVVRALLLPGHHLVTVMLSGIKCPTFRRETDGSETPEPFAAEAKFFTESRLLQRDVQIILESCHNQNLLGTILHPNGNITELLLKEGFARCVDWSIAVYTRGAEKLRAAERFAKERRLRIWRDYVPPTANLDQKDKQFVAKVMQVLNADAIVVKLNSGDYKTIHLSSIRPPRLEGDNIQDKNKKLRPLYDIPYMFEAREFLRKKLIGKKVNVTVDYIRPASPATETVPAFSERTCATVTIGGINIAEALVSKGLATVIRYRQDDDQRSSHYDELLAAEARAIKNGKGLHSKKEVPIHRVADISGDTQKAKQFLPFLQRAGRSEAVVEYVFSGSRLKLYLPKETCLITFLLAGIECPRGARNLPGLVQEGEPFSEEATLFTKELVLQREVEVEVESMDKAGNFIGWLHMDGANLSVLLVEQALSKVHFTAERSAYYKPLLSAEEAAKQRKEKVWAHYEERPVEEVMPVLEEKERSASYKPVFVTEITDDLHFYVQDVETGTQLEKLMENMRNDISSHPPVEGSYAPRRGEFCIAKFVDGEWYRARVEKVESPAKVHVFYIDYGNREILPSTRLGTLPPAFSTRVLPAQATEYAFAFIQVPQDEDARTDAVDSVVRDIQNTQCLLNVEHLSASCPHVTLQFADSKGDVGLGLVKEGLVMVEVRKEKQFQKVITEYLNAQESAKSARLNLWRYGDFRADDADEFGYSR

T2: SND1 (Homo sapiens, UniProt Q7KZF4)
T2 construct: 15 μg of His-SND1 (16-339) was added to the resin; made in house; host or cells: E. coli DH5α
T2 sequence (Q7KZF4 1-339): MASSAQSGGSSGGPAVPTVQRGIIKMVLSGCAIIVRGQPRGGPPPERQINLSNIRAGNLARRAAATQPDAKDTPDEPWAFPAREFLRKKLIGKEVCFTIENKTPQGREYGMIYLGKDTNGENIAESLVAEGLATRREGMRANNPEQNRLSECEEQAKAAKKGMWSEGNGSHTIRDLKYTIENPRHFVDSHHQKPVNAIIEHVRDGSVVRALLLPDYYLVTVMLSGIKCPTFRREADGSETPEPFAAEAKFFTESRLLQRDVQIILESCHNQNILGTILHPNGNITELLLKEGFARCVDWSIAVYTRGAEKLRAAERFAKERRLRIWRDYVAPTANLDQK


target: T1, SND1; experiment: Anti-MTDH immunoprecipitation from PyMT;Mtdh−/− tumor cells reconstituted with murine MTDH; type: cell-based; conditions: stably expressed in PyMT;Mtdh−/− tumor cells
Method: (FIG. 8A, FIG. 8E) Lysates from PyMT;Mtdh−/− MECs reconstituted with vector control, WT or mutant murine MTDH were immunoprecipitated with anti-MTDH antibody and immunoblotted for indicated proteins. (FIG. 8B, FIG. 8F) Mammosphere assays were performed with PyMT;Mtdh−/− pMECs reconstituted with indicated Mtdh constructs. (FIG. 8C, FIG. 8D, FIG. 8G, FIG. 8H) In vivo tumor formation (FIG. 8C, FIG. 8G for tumor incidence; FIG. 8D, FIG. 8H for tumor volumes) were performed at limiting numbers using PyMT;Mtdh−/− pMECs reconstituted with indicated WT or mutant MTDH. *Note: mouse W391D MTDH corresponds to human W394D MTDH; and mouse W398D MTDH corresponds to human W401D MTDH. Statistics: (FIG. 8B, […]) Student's t-test. (FIG. 8C, FIG. 8G) Limiting dilution analysis. (FIG. 8D, FIG. 8H) Mann-Whitney test. Data represent mean±SEM. ***p<0.001, **p<0.01, *p<0.05.
(FIG. 23A) Lysates from PyMT;Mtdh−/− tumor cells reconstituted with vector control, WT or mutant murine MTDH were immunoprecipitated with anti-MTDH antibody and immunoblotted for indicated proteins. Note all amino acid annotations are based on human MTDH. W394 and W401 of human MTDH correspond to W391 and W398 in murine MTDH, respectively. (FIG. 23B) Mammosphere assays were performed with PyMT;Mtdh−/− tumor cells reconstituted with indicated MTDH constructs. (FIG. 23C-E) In vivo tumor formation (FIG. 23C for tumor incidence; FIG. 23D, FIG. 23E for tumor volumes) were performed at limiting numbers using PyMT;Mtdh−/− tumor cells reconstituted with indicated WT or mutant MTDH. Statistics: (FIG. 23B) Student's t-test. Data represent mean±SEM. (FIG. 23C) Limiting dilution analysis. (FIG. 23D, FIG. 23E) Mann-Whitney test. **p<0.01, *p<0.05.
Immunoprecipitation and western blot For immunoprecipitation (IP) experiments, cultured cells were washed in cold PBS and lysed in lysis buffer (20 mM Tris pH 7.4, 0.15 M NaCl, 1 mM EDTA, 1 mM EGTA, 1% Tx-100, 0.0025 M Na2P2O7, 1 mM α-glycerolphosphate, 1 mM Na3VO4, and 1 mM NaF) with an EDTA-free protease inhibitor mixture (Roche Applied Science) and PMSF. Cell lysates were then incubated on ice for 10 min, centrifuged, and precleared by incubating with protein A/G beads (Santa Cruz Biotechnology) for 1 h at 4° C. For IP bead preparation, 30 μl of protein A/G beads were incubated with 5 μg of antibodies for 2 h at 4° C. IPs were carried out for overnight at 4° C., and beads were centrifuged, washed and subsequently boiled for 5 min in SDS protein loading buffer to elute bound protein. IP lysates were subjected to western blotting with indicated antibodies. […]

Molecule	interaction of murine MTDH mutants with SND1
murine TPM1: murine Mtdh triple mutant D386R, D390R, W391D (protein, UniProt Q80WJ7 1-579, looked up, variant D386R D390R W391D) Protein LYRIC: MAARSWQDELAQQAEEGSARLRELLSVGLGFLRTELGLDLGLEPKRYPGWVILVGTGALGLLLLFLLGYGWAAACAGARKKRRSPPRKREEAAPPTPAPDDLAQLKNLRSEEQKKKNRKKLPEKPKPNGRTVEVPEDEVVRNPRSITAKQAPETDKKNEKSKKNKKKSKSDAKAVQNSSRHDGKEVDEGAWETKISHREKRQQRKRDKVLTDSGSLDSTIPGIENIITVTTEQLTTASFPVGSKKNKGDSHLNVQVSNFKSGKGDSTLQVSSRLNENLTVNGGGWSEKSVKLSSQLSEEKWNSVPPASAGKRKTEPSAWTQDTGDTNANGKDWGRNWSDRSIFSGIGSTAEPVSQSTTSDYQWDVSRNQPYIDDEWSGLNGLSSARPSSRDNAPAEEWGNWVDEDRASLLKSQEPISNDQKVSDDDKEKGEGALPTGKSKKKKKKKKKQGEDNSHTQDTEDLEKDTREELPVNTSKARPKQEKACSLKTMSTSDPAEVLIKNSQPVKTLPPAISAEPSITLSKGDSDNSSSQVPPMLQDTDKPKSNAKQNSVPPSQTKSETNWESPKQIKKKKKARRET	lost the ability to interact with SND1
murine TPM2: murine Mtdh triple mutant E396R, E397R, W398D (protein, UniProt Q80WJ7 1-579, looked up, variant E396R E397R W398D) Protein LYRIC: MAARSWQDELAQQAEEGSARLRELLSVGLGFLRTELGLDLGLEPKRYPGWVILVGTGALGLLLLFLLGYGWAAACAGARKKRRSPPRKREEAAPPTPAPDDLAQLKNLRSEEQKKKNRKKLPEKPKPNGRTVEVPEDEVVRNPRSITAKQAPETDKKNEKSKKNKKKSKSDAKAVQNSSRHDGKEVDEGAWETKISHREKRQQRKRDKVLTDSGSLDSTIPGIENIITVTTEQLTTASFPVGSKKNKGDSHLNVQVSNFKSGKGDSTLQVSSRLNENLTVNGGGWSEKSVKLSSQLSEEKWNSVPPASAGKRKTEPSAWTQDTGDTNANGKDWGRNWSDRSIFSGIGSTAEPVSQSTTSDYQWDVSRNQPYIDDEWSGLNGLSSADPSSDWNAPARRDGNWVDEDRASLLKSQEPISNDQKVSDDDKEKGEGALPTGKSKKKKKKKKKQGEDNSHTQDTEDLEKDTREELPVNTSKARPKQEKACSLKTMSTSDPAEVLIKNSQPVKTLPPAISAEPSITLSKGDSDNSSSQVPPMLQDTDKPKSNAKQNSVPPSQTKSETNWESPKQIKKKKKARRET	lost the ability to interact with SND1
murine W394A: murine MTDH mutant W391A, corresponding to human W394A (protein) MAARSWQDELAQQAEEGSARLRELLSVGLGFLRTELGLDLGLEPKRYPGWVILVGTGALGLLLLFLLGYGWAAACAGARKKRRSPPRKREEAAPPTPAPDDLAQLKNLRSEEQKKKNRKKLPEKPKPNGRTVEVPEDEVVRNPRSITAKQAPETDKKNEKSKKNKKKSKSDAKAVQNSSRHDGKEVDEGAWETKISHREKRQQRKRDKVLTDSGSLDSTIPGIENIITVTTEQLTTASFPVGSKKNKGDSHLNVQVSNFKSGKGDSTLQVSSRLNENLTVNGGGWSEKSVKLSSQLSEEKWNSVPPASAGKRKTEPSAWTQDTGDTNANGKDWGRNWSDRSIFSGIGSTAEPVSQSTTSDYQWDVSRNQPYIDDEWSGLNGLSSADPSSDANAPAEEWGNWVDEDRASLLKSQEPISNDQKVSDDDKEKGEGALPTGKSKKKKKKKKKQGEDNSHTQDTEDLEKDTREELPVNTSKARPKQEKACSLKTMSTSDPAEVLIKNSQPVKTLPPAISAEPSITLSKGDSDNSSSQVPPMLQDTDKPKSNAKQNSVPPSQTKSETNWESPKQIKKKKKARRET	completely lost the ability to interact with SND1

target: T2, SND1; experiment: GST-mediated pull-down of SND1 by GST-tagged MTDH fragments and mutants; type: binding; conditions: His6-SND1ΔC (1-339); Coomassie blue staining
Method in brief: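 GST-MTDH fragments or mutants (~20 μg) on glutathione resin incubated with 15 μg His-SND1 (16-339) in 25 mM Tris pH 8.0, 150 mM NaCl, 3 mM DTT plus 2 mg/ml BSA. Bound protein resolved by SDS-PAGE, Coomassie-stained; bound SND1 ratio quantified by densitometry over 3 repeats.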

Molecule	SND1-binding of MTDH fragments and triple mutants, in vitro
22 amino-acid fragment (residues 386-407): GST-tagged minimal SND1-binding fragment of MTDH, residues 386-407 (SSADPNSDWNAPAEEWGNWVDE; also: GST-tagged fragment (tag left off))	sufficient for SND1-binding
MTDH fragment 364-582: GST-tagged MTDH fragment, amino acids 364-582 of SEQ ID NO: 1 (protein, listed as Homo sapiens, GST tag) YQWDVSRNQPYIDDEWSGLNGLSSADPNSDWNAPAEEWGNWVDEERASLLKSQEPIPDDQKVSDDDKEKGEGALPTGKSKKKKKKKKKQGEDNSTAQDTEELEKEIREDLPVNTSKTRPKQEKAFSLKTISTSDPAEVLVKNSQPIKTLPPATSTEPSVILSKSDSDKSSSQVPPILQETDKSKSNTKQNSVPPSQTKSETSWESPKQIKKKKKARRET	bound stoichiometrically
TPM3: MTDH triple-point mutant W404D, D406R and E407R (protein, left off: a dimerising Fc or GST, MTDH triple-point mutant W404D, D406R and E407R) YQWDVSRNQPYIDDEWSGLNGLSSADPNSDWNAPAEEWGNDVRRERASLLKSQEPIPDDQKVSDDDKEKGEGALPTGKSKKKKKKKKKQGEDNSTAQDTEELEKEIREDLPVNTSKTRPKQEKAFSLKTISTSDPAEVLVKNSQPIKTLPPATSTEPSVILSKSDSDKSSSQVPPILQETDKSKSNTKQNSVPPSQTKSETSWESPKQIKKKKKARRET	bound SND1ΔC as effectively as the WT MTDH
